These results are taken from patent publication US20110118131A1 (published 2011).

B1: XPA23 Fab, heavy chain G56N (Fab, V domains shown)
VH: EVQLLESGGGLVQPGGSLRLSCAASGFTFSKYFMFWVRQAPGKGLEWVSVISPSGNMTRYADSVKGRFTISRDNSKNTLYLQMNSLRAEDTAVYYCARVGYGGNSDYWGQGTLVTVSS
VL: DIQMTQSPSSVSASVGDRLTIICRASQDINRWLAWYQQTPGNAPKLLIHSATSLQSGVPSRFSGSGSGTDFTLTINSLQPEDFATYYCQQADSFPLTFGGGTKVEIK
B2: XPA23 Fab, heavy chain G100S (Fab, V domains shown)
VH: EVQLLESGGGLVQPGGSLRLSCAASGFTFSKYFMFWVRQAPGKGLEWVSVISPSGGMTRYADSVKGRFTISRDNSKNTLYLQMNSLRAEDTAVYYCARVSYGGNSDYWGQGTLVTVSS
VL: DIQMTQSPSSVSASVGDRLTIICRASQDINRWLAWYQQTPGNAPKLLIHSATSLQSGVPSRFSGSGSGTDFTLTINSLQPEDFATYYCQQADSFPLTFGGGTKVEIK
B3: XPA23 Fab, heavy chain G56Q (Fab, V domains shown)
VH: EVQLLESGGGLVQPGGSLRLSCAASGFTFSKYFMFWVRQAPGKGLEWVSVISPSGQMTRYADSVKGRFTISRDNSKNTLYLQMNSLRAEDTAVYYCARVGYGGNSDYWGQGTLVTVSS
VL: DIQMTQSPSSVSASVGDRLTIICRASQDINRWLAWYQQTPGNAPKLLIHSATSLQSGVPSRFSGSGSGTDFTLTINSLQPEDFATYYCQQADSFPLTFGGGTKVEIK
B4: XPA23 Fab, heavy chain G102E (Fab, V domains shown)
VH: EVQLLESGGGLVQPGGSLRLSCAASGFTFSKYFMFWVRQAPGKGLEWVSVISPSGGMTRYADSVKGRFTISRDNSKNTLYLQMNSLRAEDTAVYYCARVGYEGNSDYWGQGTLVTVSS
VL: DIQMTQSPSSVSASVGDRLTIICRASQDINRWLAWYQQTPGNAPKLLIHSATSLQSGVPSRFSGSGSGTDFTLTINSLQPEDFATYYCQQADSFPLTFGGGTKVEIK
B5: XPA23 Fab, heavy chain G102N (Fab, V domains shown)
VH: EVQLLESGGGLVQPGGSLRLSCAASGFTFSKYFMFWVRQAPGKGLEWVSVISPSGGMTRYADSVKGRFTISRDNSKNTLYLQMNSLRAEDTAVYYCARVGYNGNSDYWGQGTLVTVSS
VL: DIQMTQSPSSVSASVGDRLTIICRASQDINRWLAWYQQTPGNAPKLLIHSATSLQSGVPSRFSGSGSGTDFTLTINSLQPEDFATYYCQQADSFPLTFGGGTKVEIK
B6: XPA23 Fab, heavy chain G100Q (Fab, V domains shown)
VH: EVQLLESGGGLVQPGGSLRLSCAASGFTFSKYFMFWVRQAPGKGLEWVSVISPSGGMTRYADSVKGRFTISRDNSKNTLYLQMNSLRAEDTAVYYCARVQYGGNSDYWGQGTLVTVSS
VL: DIQMTQSPSSVSASVGDRLTIICRASQDINRWLAWYQQTPGNAPKLLIHSATSLQSGVPSRFSGSGSGTDFTLTINSLQPEDFATYYCQQADSFPLTFGGGTKVEIK
B7: XPA23 Fab, heavy chain G102Q (Fab, V domains shown)
VH: EVQLLESGGGLVQPGGSLRLSCAASGFTFSKYFMFWVRQAPGKGLEWVSVISPSGGMTRYADSVKGRFTISRDNSKNTLYLQMNSLRAEDTAVYYCARVGYQGNSDYWGQGTLVTVSS
VL: DIQMTQSPSSVSASVGDRLTIICRASQDINRWLAWYQQTPGNAPKLLIHSATSLQSGVPSRFSGSGSGTDFTLTINSLQPEDFATYYCQQADSFPLTFGGGTKVEIK
B8: XPA23 Fab, heavy chain G100D (Fab, V domains shown)
VH: EVQLLESGGGLVQPGGSLRLSCAASGFTFSKYFMFWVRQAPGKGLEWVSVISPSGGMTRYADSVKGRFTISRDNSKNTLYLQMNSLRAEDTAVYYCARVDYGGNSDYWGQGTLVTVSS
VL: DIQMTQSPSSVSASVGDRLTIICRASQDINRWLAWYQQTPGNAPKLLIHSATSLQSGVPSRFSGSGSGTDFTLTINSLQPEDFATYYCQQADSFPLTFGGGTKVEIK
B9: XPA23 Fab, heavy chain G100H (Fab, V domains shown)
VH: EVQLLESGGGLVQPGGSLRLSCAASGFTFSKYFMFWVRQAPGKGLEWVSVISPSGGMTRYADSVKGRFTISRDNSKNTLYLQMNSLRAEDTAVYYCARVHYGGNSDYWGQGTLVTVSS
VL: DIQMTQSPSSVSASVGDRLTIICRASQDINRWLAWYQQTPGNAPKLLIHSATSLQSGVPSRFSGSGSGTDFTLTINSLQPEDFATYYCQQADSFPLTFGGGTKVEIK
B10: XPA23 Fab, heavy chain G100F (Fab, V domains shown)
VH: EVQLLESGGGLVQPGGSLRLSCAASGFTFSKYFMFWVRQAPGKGLEWVSVISPSGGMTRYADSVKGRFTISRDNSKNTLYLQMNSLRAEDTAVYYCARVFYGGNSDYWGQGTLVTVSS
VL: DIQMTQSPSSVSASVGDRLTIICRASQDINRWLAWYQQTPGNAPKLLIHSATSLQSGVPSRFSGSGSGTDFTLTINSLQPEDFATYYCQQADSFPLTFGGGTKVEIK
B11: XPA23 Fab, heavy chain G56R (Fab, V domains shown)
VH: EVQLLESGGGLVQPGGSLRLSCAASGFTFSKYFMFWVRQAPGKGLEWVSVISPSGRMTRYADSVKGRFTISRDNSKNTLYLQMNSLRAEDTAVYYCARVGYGGNSDYWGQGTLVTVSS
VL: DIQMTQSPSSVSASVGDRLTIICRASQDINRWLAWYQQTPGNAPKLLIHSATSLQSGVPSRFSGSGSGTDFTLTINSLQPEDFATYYCQQADSFPLTFGGGTKVEIK
B12: XPA23 Fab, heavy chain G100R (Fab, V domains shown)
VH: EVQLLESGGGLVQPGGSLRLSCAASGFTFSKYFMFWVRQAPGKGLEWVSVISPSGGMTRYADSVKGRFTISRDNSKNTLYLQMNSLRAEDTAVYYCARVRYGGNSDYWGQGTLVTVSS
VL: DIQMTQSPSSVSASVGDRLTIICRASQDINRWLAWYQQTPGNAPKLLIHSATSLQSGVPSRFSGSGSGTDFTLTINSLQPEDFATYYCQQADSFPLTFGGGTKVEIK
B13: XPA23 Fab, heavy chain G100K (Fab, V domains shown)
VH: EVQLLESGGGLVQPGGSLRLSCAASGFTFSKYFMFWVRQAPGKGLEWVSVISPSGGMTRYADSVKGRFTISRDNSKNTLYLQMNSLRAEDTAVYYCARVKYGGNSDYWGQGTLVTVSS
VL: DIQMTQSPSSVSASVGDRLTIICRASQDINRWLAWYQQTPGNAPKLLIHSATSLQSGVPSRFSGSGSGTDFTLTINSLQPEDFATYYCQQADSFPLTFGGGTKVEIK
B14: XPA23 Fab, heavy chain G56Y (Fab, V domains shown)
VH: EVQLLESGGGLVQPGGSLRLSCAASGFTFSKYFMFWVRQAPGKGLEWVSVISPSGYMTRYADSVKGRFTISRDNSKNTLYLQMNSLRAEDTAVYYCARVGYGGNSDYWGQGTLVTVSS
VL: DIQMTQSPSSVSASVGDRLTIICRASQDINRWLAWYQQTPGNAPKLLIHSATSLQSGVPSRFSGSGSGTDFTLTINSLQPEDFATYYCQQADSFPLTFGGGTKVEIK
B15: XPA23 Fab, heavy chain G56W (Fab, V domains shown)
VH: EVQLLESGGGLVQPGGSLRLSCAASGFTFSKYFMFWVRQAPGKGLEWVSVISPSGWMTRYADSVKGRFTISRDNSKNTLYLQMNSLRAEDTAVYYCARVGYGGNSDYWGQGTLVTVSS
VL: DIQMTQSPSSVSASVGDRLTIICRASQDINRWLAWYQQTPGNAPKLLIHSATSLQSGVPSRFSGSGSGTDFTLTINSLQPEDFATYYCQQADSFPLTFGGGTKVEIK
B16: XPA23 Fab, heavy chain G100Y (Fab, V domains shown)
VH: EVQLLESGGGLVQPGGSLRLSCAASGFTFSKYFMFWVRQAPGKGLEWVSVISPSGGMTRYADSVKGRFTISRDNSKNTLYLQMNSLRAEDTAVYYCARVYYGGNSDYWGQGTLVTVSS
VL: DIQMTQSPSSVSASVGDRLTIICRASQDINRWLAWYQQTPGNAPKLLIHSATSLQSGVPSRFSGSGSGTDFTLTINSLQPEDFATYYCQQADSFPLTFGGGTKVEIK
B17: XPA23 Fab, heavy chain G102R (Fab, V domains shown)
VH: EVQLLESGGGLVQPGGSLRLSCAASGFTFSKYFMFWVRQAPGKGLEWVSVISPSGGMTRYADSVKGRFTISRDNSKNTLYLQMNSLRAEDTAVYYCARVGYRGNSDYWGQGTLVTVSS
VL: DIQMTQSPSSVSASVGDRLTIICRASQDINRWLAWYQQTPGNAPKLLIHSATSLQSGVPSRFSGSGSGTDFTLTINSLQPEDFATYYCQQADSFPLTFGGGTKVEIK
B18: XPA23 Fab, heavy chain G102W (Fab, V domains shown)
VH: EVQLLESGGGLVQPGGSLRLSCAASGFTFSKYFMFWVRQAPGKGLEWVSVISPSGGMTRYADSVKGRFTISRDNSKNTLYLQMNSLRAEDTAVYYCARVGYWGNSDYWGQGTLVTVSS
VL: DIQMTQSPSSVSASVGDRLTIICRASQDINRWLAWYQQTPGNAPKLLIHSATSLQSGVPSRFSGSGSGTDFTLTINSLQPEDFATYYCQQADSFPLTFGGGTKVEIK
B19: XPA23 Fab, heavy chain G102K (Fab, V domains shown)
VH: EVQLLESGGGLVQPGGSLRLSCAASGFTFSKYFMFWVRQAPGKGLEWVSVISPSGGMTRYADSVKGRFTISRDNSKNTLYLQMNSLRAEDTAVYYCARVGYKGNSDYWGQGTLVTVSS
VL: DIQMTQSPSSVSASVGDRLTIICRASQDINRWLAWYQQTPGNAPKLLIHSATSLQSGVPSRFSGSGSGTDFTLTINSLQPEDFATYYCQQADSFPLTFGGGTKVEIK
B20: XPA23 Fab, heavy chain G100W (Fab, V domains shown)
VH: EVQLLESGGGLVQPGGSLRLSCAASGFTFSKYFMFWVRQAPGKGLEWVSVISPSGGMTRYADSVKGRFTISRDNSKNTLYLQMNSLRAEDTAVYYCARVWYGGNSDYWGQGTLVTVSS
VL: DIQMTQSPSSVSASVGDRLTIICRASQDINRWLAWYQQTPGNAPKLLIHSATSLQSGVPSRFSGSGSGTDFTLTINSLQPEDFATYYCQQADSFPLTFGGGTKVEIK
B21: XPA23 Fab, heavy chain G102H (Fab, V domains shown)
VH: EVQLLESGGGLVQPGGSLRLSCAASGFTFSKYFMFWVRQAPGKGLEWVSVISPSGGMTRYADSVKGRFTISRDNSKNTLYLQMNSLRAEDTAVYYCARVGYHGNSDYWGQGTLVTVSS
VL: DIQMTQSPSSVSASVGDRLTIICRASQDINRWLAWYQQTPGNAPKLLIHSATSLQSGVPSRFSGSGSGTDFTLTINSLQPEDFATYYCQQADSFPLTFGGGTKVEIK

The target of this assay is T1, IL-1beta (UniProt P01584 117-269).
T1 construct: also called IL-1β
Kind of assay: Biacore. A general note: Surface plasmon resonance follows binding to a sensor surface in real time, without labels.
In the case of B1, the “fold difference in affinity vs parental” value is 1.06 fold.
Same read-out and setting: the figure for B2 is 2.8 fold.
On the same count and under the same terms, the figure for B3 is 1.31 fold.
Regarding B4, the binding result is recorded as “no binding”.
For B5, the “fold difference in affinity vs parental” value is 1.17 fold.
B6: the binding result is “no binding”.
Same read-out and setting: the entry for B7 is “no binding”.
With B8, the binding result is recorded as “no binding”.
As to B9, the “fold difference in affinity vs parental” value turned out to be 0.06 fold.
B10: the binding result was “no binding”.
In the case of B11, the “fold difference in affinity vs parental” value was 2.11 fold.
For the molecule B12, the binding result is on record as “no binding”.
On the same count and under the same terms, the entry for B13 is “no binding”.
Regarding B14, the “fold difference in affinity vs parental” value is 1.27 fold.
As to B15, the “fold difference in affinity vs parental” value was 1.51 fold.
As to B16, the “fold difference in affinity vs parental” value is 0.09 fold.
For the molecule B17, the binding result is reported as “no binding”.
Same read-out and setting: then B18, with “no binding”.
The same measure, in the same setting: the entry for B19 is “no binding”.
Take B20: the “fold difference in affinity vs parental” value amounted to 0.05 fold.
For the molecule B21, the binding result is “no binding”.
